Test results published in patent US20250262210A1 (TRUSTEES OF COLUMBIA UNIVERSITY IN THE CITY OF NEW YORK, published 2025).

How the values were obtained:
Test in all cases: IP/MS, LZTR1 wild type-FLAG, U87
USP47 = molecular target: T1, USP47 (human, UniProt Q96K76 1-1375, limits assumed)
T1 sequence (looked up): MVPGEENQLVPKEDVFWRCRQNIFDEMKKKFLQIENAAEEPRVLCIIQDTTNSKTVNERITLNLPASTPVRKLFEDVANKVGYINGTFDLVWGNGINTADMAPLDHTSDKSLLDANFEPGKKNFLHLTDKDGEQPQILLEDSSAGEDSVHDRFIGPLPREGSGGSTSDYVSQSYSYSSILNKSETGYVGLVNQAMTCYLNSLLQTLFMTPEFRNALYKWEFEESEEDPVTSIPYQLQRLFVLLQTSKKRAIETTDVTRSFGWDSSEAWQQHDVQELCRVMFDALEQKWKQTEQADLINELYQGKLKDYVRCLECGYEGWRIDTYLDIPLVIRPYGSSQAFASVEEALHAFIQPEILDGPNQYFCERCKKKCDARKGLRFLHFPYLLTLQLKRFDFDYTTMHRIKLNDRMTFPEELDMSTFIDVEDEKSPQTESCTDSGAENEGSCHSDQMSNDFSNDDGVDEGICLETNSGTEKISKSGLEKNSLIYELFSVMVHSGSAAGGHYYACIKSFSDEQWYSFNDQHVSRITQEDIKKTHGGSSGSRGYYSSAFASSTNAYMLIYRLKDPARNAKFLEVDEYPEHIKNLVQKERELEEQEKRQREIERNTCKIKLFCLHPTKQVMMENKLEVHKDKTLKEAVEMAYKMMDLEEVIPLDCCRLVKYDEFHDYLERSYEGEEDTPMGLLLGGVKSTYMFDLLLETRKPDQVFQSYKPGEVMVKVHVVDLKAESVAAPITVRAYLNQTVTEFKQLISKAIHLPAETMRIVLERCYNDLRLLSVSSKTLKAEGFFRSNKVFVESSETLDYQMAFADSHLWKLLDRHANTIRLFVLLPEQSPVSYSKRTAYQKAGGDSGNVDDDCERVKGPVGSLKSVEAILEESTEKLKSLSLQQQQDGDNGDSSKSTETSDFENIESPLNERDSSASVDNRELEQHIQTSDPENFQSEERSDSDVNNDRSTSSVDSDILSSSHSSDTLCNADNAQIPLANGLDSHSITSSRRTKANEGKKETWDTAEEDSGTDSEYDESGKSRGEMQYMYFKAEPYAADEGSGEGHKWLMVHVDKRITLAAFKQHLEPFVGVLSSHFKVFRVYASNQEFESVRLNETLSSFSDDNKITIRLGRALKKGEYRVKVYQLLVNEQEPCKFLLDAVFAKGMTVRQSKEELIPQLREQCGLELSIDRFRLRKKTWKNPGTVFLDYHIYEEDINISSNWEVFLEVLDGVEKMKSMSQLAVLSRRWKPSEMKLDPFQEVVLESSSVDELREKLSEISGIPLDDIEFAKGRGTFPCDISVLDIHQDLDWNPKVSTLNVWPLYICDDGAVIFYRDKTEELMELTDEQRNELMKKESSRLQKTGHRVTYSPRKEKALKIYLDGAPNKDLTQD
How it was run: (§1)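 Gel slices were reduced with 5 mM DTT, alkylated with 11 mM IAA and digested overnight at 37° C. with trypsin. Peptides were analysed on an Orbitrap Fusion Tribrid by LC-MS/MS.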

RUSC2 = RUSC2 (human, UniProt Q8N2Y8 1-1516)
RUSC2, sequence (Q8N2Y8 whole entry): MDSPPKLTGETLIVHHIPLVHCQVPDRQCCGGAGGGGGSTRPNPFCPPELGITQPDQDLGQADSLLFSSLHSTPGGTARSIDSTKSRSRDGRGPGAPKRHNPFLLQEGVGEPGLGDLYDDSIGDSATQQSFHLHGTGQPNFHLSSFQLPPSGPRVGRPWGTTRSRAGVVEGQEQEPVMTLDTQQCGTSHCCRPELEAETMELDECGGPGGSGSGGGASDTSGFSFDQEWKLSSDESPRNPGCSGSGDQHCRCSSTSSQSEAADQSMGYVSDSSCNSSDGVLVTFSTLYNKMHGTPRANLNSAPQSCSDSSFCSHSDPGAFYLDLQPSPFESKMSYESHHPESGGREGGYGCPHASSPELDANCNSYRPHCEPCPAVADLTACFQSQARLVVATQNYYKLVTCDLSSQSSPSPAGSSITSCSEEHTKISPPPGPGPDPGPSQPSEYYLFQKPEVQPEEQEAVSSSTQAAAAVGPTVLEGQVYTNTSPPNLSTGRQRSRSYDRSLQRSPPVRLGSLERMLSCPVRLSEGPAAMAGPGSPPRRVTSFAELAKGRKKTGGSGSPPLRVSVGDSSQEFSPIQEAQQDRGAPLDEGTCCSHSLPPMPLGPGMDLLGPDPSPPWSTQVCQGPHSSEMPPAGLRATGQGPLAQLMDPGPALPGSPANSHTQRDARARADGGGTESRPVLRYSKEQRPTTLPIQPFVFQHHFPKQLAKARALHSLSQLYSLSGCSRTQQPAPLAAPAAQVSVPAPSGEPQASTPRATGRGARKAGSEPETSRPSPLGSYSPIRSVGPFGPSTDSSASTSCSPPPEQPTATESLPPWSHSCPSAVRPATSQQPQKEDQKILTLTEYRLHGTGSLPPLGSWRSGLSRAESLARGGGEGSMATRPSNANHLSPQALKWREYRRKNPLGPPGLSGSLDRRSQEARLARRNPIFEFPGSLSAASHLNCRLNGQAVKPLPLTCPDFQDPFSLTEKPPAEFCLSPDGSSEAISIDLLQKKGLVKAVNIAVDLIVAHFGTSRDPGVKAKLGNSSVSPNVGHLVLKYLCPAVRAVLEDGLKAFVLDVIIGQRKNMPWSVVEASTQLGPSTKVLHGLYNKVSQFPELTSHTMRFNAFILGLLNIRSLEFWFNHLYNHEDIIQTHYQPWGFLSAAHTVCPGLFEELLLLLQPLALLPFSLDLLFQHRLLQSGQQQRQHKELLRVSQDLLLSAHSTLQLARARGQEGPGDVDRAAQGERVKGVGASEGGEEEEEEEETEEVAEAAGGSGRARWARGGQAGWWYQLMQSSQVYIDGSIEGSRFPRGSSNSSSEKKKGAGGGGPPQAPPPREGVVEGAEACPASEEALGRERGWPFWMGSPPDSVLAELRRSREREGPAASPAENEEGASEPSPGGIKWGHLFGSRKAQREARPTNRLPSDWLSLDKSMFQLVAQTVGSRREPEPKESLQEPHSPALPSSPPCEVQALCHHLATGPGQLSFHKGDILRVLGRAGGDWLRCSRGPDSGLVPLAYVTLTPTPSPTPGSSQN
How it was run: as §1

DPP9 = DPP9 (human, UniProt Q86TI2 2-863, limits assumed)
DPP9, sequence (Q86TI2 2-863 limits assumed): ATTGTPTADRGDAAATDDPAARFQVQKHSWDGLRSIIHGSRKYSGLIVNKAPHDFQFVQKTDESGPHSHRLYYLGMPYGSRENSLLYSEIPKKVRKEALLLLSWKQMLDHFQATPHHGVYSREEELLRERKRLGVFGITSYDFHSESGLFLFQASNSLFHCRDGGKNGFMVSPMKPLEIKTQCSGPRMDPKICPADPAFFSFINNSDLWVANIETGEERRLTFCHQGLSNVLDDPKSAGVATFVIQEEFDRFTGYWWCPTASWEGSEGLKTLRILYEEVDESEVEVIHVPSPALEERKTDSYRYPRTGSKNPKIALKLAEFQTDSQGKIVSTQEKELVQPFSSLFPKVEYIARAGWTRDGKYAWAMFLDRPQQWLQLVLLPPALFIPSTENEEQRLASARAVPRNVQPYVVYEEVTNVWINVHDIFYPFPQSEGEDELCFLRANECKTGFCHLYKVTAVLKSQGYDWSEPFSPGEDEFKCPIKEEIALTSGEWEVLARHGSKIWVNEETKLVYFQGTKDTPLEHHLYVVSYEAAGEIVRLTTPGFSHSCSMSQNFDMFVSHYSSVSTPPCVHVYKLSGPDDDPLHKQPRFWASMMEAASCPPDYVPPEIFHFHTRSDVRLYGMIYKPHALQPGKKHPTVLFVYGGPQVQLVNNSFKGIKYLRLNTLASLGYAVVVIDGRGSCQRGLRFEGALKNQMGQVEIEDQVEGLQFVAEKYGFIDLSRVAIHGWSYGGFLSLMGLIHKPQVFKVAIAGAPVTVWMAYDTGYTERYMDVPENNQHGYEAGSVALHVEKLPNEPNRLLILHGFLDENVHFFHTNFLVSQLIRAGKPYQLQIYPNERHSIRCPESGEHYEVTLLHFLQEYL
How it was run: as §1

KIAA1217 = KIAA1217 (human, UniProt Q5T5P2 1-1943, limits assumed)
How it was run: as §1

URB1 = URB1 (human, UniProt O60287 1-2271)
How it was run: as §1

CRYBG1 = CRYBG1 (human, UniProt Q9Y4K1 1-2131, limits assumed)
CRYBG1, sequence (Q9Y4K1 whole entry): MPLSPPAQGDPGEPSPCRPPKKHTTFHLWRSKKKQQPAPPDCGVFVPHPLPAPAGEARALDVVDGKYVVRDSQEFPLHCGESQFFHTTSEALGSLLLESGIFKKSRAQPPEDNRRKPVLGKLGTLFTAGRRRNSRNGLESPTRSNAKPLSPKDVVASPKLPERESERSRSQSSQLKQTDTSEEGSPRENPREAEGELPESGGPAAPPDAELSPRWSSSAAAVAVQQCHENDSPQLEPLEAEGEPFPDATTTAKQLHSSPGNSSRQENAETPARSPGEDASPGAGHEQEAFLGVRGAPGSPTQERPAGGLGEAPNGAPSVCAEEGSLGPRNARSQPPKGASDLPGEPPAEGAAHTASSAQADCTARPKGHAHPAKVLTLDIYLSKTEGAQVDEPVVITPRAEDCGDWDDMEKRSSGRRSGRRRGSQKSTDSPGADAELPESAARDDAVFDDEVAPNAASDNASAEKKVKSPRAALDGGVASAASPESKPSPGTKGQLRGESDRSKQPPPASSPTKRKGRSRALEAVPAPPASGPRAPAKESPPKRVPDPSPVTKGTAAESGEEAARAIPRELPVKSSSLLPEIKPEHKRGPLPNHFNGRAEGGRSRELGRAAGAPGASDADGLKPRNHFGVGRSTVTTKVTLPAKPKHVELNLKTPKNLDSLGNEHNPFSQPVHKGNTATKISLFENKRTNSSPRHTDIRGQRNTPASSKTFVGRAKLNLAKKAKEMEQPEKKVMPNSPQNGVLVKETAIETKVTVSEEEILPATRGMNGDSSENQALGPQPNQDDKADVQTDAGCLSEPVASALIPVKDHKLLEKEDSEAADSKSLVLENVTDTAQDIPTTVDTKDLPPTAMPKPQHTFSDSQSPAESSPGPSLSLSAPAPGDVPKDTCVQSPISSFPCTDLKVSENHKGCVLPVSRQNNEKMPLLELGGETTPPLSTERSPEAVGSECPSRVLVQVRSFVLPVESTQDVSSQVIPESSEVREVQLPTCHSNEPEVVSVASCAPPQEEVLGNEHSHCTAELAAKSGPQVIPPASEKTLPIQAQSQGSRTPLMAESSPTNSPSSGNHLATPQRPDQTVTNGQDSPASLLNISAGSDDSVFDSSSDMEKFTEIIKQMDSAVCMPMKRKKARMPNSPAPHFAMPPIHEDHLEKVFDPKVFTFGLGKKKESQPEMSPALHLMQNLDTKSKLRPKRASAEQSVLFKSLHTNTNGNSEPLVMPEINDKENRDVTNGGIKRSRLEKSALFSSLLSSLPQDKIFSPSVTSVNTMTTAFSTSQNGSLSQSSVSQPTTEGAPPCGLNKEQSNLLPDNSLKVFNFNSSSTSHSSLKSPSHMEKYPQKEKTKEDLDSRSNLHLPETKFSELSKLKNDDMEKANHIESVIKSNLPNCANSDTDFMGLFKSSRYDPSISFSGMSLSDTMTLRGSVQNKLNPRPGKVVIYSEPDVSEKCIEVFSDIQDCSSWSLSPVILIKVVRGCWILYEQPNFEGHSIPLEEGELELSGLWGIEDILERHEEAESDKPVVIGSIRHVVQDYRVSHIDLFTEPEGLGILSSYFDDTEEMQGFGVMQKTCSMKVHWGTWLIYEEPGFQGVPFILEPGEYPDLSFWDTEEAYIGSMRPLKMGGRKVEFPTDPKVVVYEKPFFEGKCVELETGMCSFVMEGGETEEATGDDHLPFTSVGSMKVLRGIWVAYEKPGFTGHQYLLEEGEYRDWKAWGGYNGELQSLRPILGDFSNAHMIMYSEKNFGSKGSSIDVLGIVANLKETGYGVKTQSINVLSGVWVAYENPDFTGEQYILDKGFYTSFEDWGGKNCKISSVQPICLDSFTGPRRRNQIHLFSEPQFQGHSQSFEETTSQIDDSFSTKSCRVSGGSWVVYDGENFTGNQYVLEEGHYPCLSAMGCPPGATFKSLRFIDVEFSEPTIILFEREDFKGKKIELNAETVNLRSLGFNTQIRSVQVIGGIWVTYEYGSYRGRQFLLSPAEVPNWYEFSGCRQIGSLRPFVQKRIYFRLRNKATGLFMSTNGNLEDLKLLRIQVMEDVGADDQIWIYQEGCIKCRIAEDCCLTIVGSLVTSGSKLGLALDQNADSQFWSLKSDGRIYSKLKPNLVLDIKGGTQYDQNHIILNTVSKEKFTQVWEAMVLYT
How it was run: as §1

Measured: binding result

B1: LZTR1-FLAG (other, human, UniProt Q8N653 1-840, looked up)
chain: MAGPGSTGGQIGAAALAGGARSKVAPSVDFDHSCSDSVEYLTLNFGPFETVHRWRRLPPCDEFVGARRSKHTVVAYKDAIYVFGGDNGKTMLNDLLRFDVKDCSWCRAFTTGTPPAPRYHHSAVVYGSSMFVFGGYTGDIYSNSNLKNKNDLFEYKFATGQWTEWKIEGRLPVARSAHGATVYSDKLWIFAGYDGNARLNDMWTIGLQDRELTCWEEVAQSGEIPPSCCNFPVAVCRDKMFVFSGQSGAKITNNLFQFEFKDKTWTRIPTEHLLRGSPPPPQRRYGHTMVAFDRHLYVFGGAADNTLPNELHCYDVDFQTWEVVQPSSDSEVGGAEVPERACASEEVPTLTYEERVGFKKSRDVFGLDFGTTSAKQPTQPASELPSGRLFHAAAVISDAMYIFGGTVDNNIRSGEMYRFQFSCYPKCTLHEDYGRLWESRQFCDVEFVLGEKEECVQGHVAIVTARSRWLRRKITQARERLAQKLEQEAAPVPREAPGVAAGGARPPLLHVAIREAEARPFEVLMQFLYTDKIKYPRKGHVEDVLLIMDVYKLALSFQLCRLEQLCRQYIEASVDLQNVLVVCESAARLQLSQLKEHCLNFVVKESHFNQVIMMKEFERLSSPLIVEIVRRKQQPPPRTPLDQPVDIGTSLIQDMKAYLEGAGAEFCDITLLLDGHPRPAHKAILAARSSYFEAMFRSFMPEDGQVNISIGEMVPSRQAFESMLRYIYYGEVNMPPEDSLYLFAAPYYYGFYNNRLQAYCKQNLEMNVTVQNVLQILEAADKTQALDMKRHCLHIIVHQFTKVSKLPTLRSLSQQLLLDIIDSLASHISDKQCAELGADI
notes: Expressed in HEK 293T, HeLa or U87 cells; used as cell lysate; also called LZTR1 wild type-FLAG; LZTR1 WT; not shown: FLAG tag at the C-terminus
binds: all assays above
